Measurements as given in patent US20160289698A1 (TRUSTEES OF DARTMOUTH COLLEGE, published 2016).

T1: ARR2 (Arabidopsis, UniProt Q9ZWJ9 1-664, limits assumed)
T1 construct: also called type-B response regulator ARR2
T1 sequence (looked up): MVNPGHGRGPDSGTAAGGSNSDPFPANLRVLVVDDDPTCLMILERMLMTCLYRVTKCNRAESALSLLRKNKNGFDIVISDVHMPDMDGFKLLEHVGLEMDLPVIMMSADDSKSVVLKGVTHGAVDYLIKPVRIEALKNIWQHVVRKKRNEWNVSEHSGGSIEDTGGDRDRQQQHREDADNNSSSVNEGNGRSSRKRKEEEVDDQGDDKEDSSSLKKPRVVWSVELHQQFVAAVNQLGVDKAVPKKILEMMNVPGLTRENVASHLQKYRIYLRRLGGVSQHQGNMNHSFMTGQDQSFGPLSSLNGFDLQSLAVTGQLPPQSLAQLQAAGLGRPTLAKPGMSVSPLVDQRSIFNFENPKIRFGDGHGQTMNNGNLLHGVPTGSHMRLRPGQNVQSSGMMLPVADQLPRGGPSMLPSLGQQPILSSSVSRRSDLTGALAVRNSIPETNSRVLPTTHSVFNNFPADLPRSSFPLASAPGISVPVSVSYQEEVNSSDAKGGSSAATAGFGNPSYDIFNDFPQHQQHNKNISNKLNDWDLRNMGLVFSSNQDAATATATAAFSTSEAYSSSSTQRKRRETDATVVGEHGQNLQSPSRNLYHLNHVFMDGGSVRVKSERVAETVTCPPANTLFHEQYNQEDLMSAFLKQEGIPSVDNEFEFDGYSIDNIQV

T2: ARR19 (subfamily-2) (Arabidopsis, UniProt Q9M9B9 1-407, limits assumed)
T2 sequence (looked up): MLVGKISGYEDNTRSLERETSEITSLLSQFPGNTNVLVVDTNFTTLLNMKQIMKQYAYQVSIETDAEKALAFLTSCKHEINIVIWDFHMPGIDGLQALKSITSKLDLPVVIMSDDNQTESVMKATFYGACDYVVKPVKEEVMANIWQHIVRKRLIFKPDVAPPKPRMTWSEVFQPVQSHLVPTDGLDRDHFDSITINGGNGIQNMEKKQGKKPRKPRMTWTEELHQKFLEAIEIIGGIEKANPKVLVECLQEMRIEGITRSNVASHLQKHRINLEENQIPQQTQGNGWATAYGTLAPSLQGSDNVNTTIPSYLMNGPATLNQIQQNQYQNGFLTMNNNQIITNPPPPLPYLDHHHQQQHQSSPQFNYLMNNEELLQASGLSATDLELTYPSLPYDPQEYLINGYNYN

T3: ARR12 (133-596) (Arabidopsis, UniProt P62598 133-596)
T3 construct: range 133-596; Fused to a YFP fragment for BiFC; also called C-terminal domain of ARR12
T3 sequence (looked up): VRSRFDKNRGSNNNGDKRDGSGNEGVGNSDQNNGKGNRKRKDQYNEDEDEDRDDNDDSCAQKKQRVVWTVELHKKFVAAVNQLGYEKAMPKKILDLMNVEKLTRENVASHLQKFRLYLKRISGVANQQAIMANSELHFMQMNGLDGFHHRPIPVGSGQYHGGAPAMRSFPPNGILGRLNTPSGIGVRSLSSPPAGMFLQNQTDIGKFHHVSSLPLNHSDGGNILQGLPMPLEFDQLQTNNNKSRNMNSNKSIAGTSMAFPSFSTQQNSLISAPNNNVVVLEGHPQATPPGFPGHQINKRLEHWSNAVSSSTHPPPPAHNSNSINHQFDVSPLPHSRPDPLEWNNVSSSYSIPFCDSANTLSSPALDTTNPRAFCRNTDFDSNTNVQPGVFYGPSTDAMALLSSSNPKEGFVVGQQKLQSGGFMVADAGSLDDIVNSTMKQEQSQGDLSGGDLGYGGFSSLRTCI


Key:
ARR2 = target: T1, ARR2; test: yeast two-hybrid (LexA-KMD bait, B42-ARR prey, X-gal)
Outline: (§1)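 LexA DNA-binding-domain KMD bait fusions (pGilda) and B42 activation-domain type-B ARR prey fusions (pJG4-5) were co-transformed into yeast EGY48 carrying the lacZ reporter plasmid pSH18-34. Interaction was scored by colour on X-gal medium.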

ARR19 (subfamily-2) = target: T2, ARR19 (subfamily-2); test: as above
Outline: as §1

ARR12 (133-596) = target: T3, ARR12 (133-596); test: BiFC with ARR fragments

| binding result (ARR2) | binding result (ARR19 (subfamily-2)) | binding result (ARR12 (133-596)) | Binder |
| --- | --- | --- | --- |
| binds | no binding | – | KISS ME DEADLY 2 (KMD2) (other, Arabidopsis, UniProt Q9LMR5 1-359, looked up, Full-length protein; LexA fusion in yeast two-hybrid, YFP^N or YFP^C fusion in BiFC; also called At1g15670) MELIPDLPETVAYECLLRSSYKQFPLMASVCKLWQREISLSDFFRHRKASGHSQELVVLSQARVDPVKELVSGNKTIPTPVYRISVLELGTGLRSELPPVPGHSNGLPLFCRLVSVGSDLVVLCGLDPVTWRTSDSVFVFSFLTSTWRVGKSMPGGPRSFFACASDSQRNVFVAGGHDEDKNAMMSALVYDVAEDRWAFLPDMGRERDECTAIFHAGKFHVIGGYSTEEQGQFSKTAESFDVTTWRWSPQGEEFLSSEMTMWPPICAAGENGDLYACCRRDLMMMKDDTWYKVGNLPADVCNVSYVAIRRSGNLVVIGSARYGEPSVGYNWDMSNSRWLKLETHDKYEGHVQAGCFLEI |
| binds | no binding | binds | KISS ME DEADLY 1 (KMD1) (other, Arabidopsis, UniProt Q9M8L2 1-354, looked up, Full-length protein; also called At1g80440) MELIPNLPDDVARECLLRSSYQQFPVIASVCRAWNREVSLSQFLHQRKASRHSQELLILSQARVDPAGSGKIIATPEYRISVLESGSGLWTELPPIPGQTKGLPLFCRLVSVGSDLIVLGGLDPITWQAHDSVFVFSFLTSKWRVGATMPGVRRSFFGCASDSDRTVLVAGGHNEEKCALTSAMVYDVSEDKWTFLPDMARERDECKAVFHAGRFHVIGGYATEEQGQFSKTAESFDVSTWEWGPLTEDFLDDTGDTVSPPTCVAGGDLYACWGGDVMMFLNDKWQKVGQIPADVYNVTYVAVRPGMLIVIGNGKALAGYGEATVGYICDLSSSRWVKLETHGGHVQAGCFLEV |
